In publication PMC9482650, “Quantitative fragmentomics allow affinity mapping of interactomes” (Nature Communications, 2022):

Legend:
Assay in all cases: holdup assay
Parameters in all cases: key: below the threshold = too weak to quantify, mostly under pKd 3.1 to 4
MPP7, Q5T2T1 = biological target: T1, MPP7, Q5T2T1
T1 sequence (Q5T2T1 134-230, limits assumed, looked up): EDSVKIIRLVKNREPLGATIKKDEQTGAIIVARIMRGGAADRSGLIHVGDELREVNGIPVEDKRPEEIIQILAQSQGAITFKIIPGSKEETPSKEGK

Inadl_6, Q8NI35 = biological target: Inadl_6, Q8NI35
Sequence of Inadl_6, Q8NI35 (Q8NI35 1058-1167): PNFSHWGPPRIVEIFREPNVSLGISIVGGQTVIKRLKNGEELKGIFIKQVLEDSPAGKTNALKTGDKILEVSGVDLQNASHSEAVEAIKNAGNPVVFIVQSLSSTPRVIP

APBA3_1, O96018 = biological target: T2, APBA3_1, O96018
T2 sequence (O96018 389-490, limits assumed, looked up): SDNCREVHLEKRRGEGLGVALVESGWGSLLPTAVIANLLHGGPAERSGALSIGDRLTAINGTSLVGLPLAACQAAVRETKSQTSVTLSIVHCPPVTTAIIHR

TJP1_3, Q07157 = biological target: TJP1_3, Q07157
Sequence of TJP1_3, Q07157 (Q07157 416-512): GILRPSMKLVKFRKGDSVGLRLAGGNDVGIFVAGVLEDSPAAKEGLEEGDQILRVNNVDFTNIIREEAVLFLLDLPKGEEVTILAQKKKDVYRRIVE

GOPC, Q9HD26 = biological target: GOPC, Q9HD26
LNX2_3, Q8N448 = biological target: T3, LNX2_3, Q8N448
T3 sequence (Q8N448 463-564, limits assumed, looked up): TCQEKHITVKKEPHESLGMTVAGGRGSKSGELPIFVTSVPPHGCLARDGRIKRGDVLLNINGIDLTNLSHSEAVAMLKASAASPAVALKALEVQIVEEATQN

DLG2_2, Q15700 = biological target: DLG2_2, Q15700
Sequence of DLG2_2, Q15700 (Q15700 189-283): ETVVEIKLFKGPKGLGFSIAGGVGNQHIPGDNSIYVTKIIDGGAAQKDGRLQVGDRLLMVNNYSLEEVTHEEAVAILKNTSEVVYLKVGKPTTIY

LNX1_2, Q8TBB1 = biological target: LNX1_2, Q8TBB1
Sequence of LNX1_2, Q8TBB1 (Q8TBB1 371-470): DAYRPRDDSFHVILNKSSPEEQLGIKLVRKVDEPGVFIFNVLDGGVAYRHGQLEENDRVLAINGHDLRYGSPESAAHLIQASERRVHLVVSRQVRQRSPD

HTRA3, P83110 = biological target: T4, HTRA3, P83110
T4 sequence (P83110 354-453, limits assumed, looked up): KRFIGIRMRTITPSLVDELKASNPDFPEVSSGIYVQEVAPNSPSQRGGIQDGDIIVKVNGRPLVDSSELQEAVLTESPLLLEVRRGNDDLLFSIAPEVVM

LNX1_1, Q8TBB1 = biological target: LNX1_1, Q8TBB1
Sequence of LNX1_1, Q8TBB1 (Q8TBB1 261-371): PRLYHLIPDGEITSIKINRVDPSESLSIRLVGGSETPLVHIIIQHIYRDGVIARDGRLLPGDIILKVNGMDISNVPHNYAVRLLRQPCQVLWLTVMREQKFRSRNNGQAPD

CARD11, Q9BXL7 = biological target: T5, CARD11, Q9BXL7
T5 sequence (Q9BXL7 662-765, limits assumed, looked up): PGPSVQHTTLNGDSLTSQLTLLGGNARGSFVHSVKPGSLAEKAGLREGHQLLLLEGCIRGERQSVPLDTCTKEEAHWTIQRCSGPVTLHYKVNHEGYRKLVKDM

LAP2, Q96RT1 = biological target: LAP2, Q96RT1
Sequence of LAP2, Q96RT1 (Q96RT1 other isoform, or with tags, fused parts or gaps): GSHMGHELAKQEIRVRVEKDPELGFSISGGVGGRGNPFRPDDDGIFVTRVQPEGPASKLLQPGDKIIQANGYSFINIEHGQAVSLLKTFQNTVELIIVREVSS

NHERF4_1, Q86UT5-2 = biological target: NHERF4_1, Q86UT5-2
Sequence of NHERF4_1, Q86UT5-2 (Q86UT5 other isoform, or with tags, fused parts or gaps): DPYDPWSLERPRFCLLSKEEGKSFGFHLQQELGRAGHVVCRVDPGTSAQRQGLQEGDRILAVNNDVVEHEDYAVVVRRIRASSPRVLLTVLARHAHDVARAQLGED

HTRA1, Q92743 = biological target: HTRA1, Q92743
Sequence of HTRA1, Q92743 (Q92743 360-477): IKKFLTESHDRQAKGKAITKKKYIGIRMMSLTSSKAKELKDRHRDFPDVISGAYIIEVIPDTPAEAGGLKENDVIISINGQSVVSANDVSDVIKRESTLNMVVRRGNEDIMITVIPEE

LRRC7, Q96NW7 = biological target: T6, LRRC7, Q96NW7
T6 sequence (Q96NW7 1440-1537, limits assumed, looked up): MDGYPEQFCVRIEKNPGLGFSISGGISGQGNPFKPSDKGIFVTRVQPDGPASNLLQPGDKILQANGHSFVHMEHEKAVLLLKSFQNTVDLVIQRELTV

MAGI3_2, Q5TCQ9 = biological target: MAGI3_2, Q5TCQ9
Sequence of MAGI3_2, Q5TCQ9 (Q5TCQ9 398-503): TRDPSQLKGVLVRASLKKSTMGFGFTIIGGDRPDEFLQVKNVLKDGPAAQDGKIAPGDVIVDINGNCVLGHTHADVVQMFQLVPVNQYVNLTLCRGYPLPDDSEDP

GORASP2, Q9H8Y8 = biological target: GORASP2, Q9H8Y8
FRMPD3, Q5JV73 = biological target: FRMPD3, Q5JV73
Sequence of FRMPD3, Q5JV73 (Q5JV73 12-100): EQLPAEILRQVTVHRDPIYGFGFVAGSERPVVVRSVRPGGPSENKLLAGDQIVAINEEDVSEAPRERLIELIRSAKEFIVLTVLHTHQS

PDZRN4_1, Q6ZMN7 = biological target: PDZRN4_1, Q6ZMN7
Sequence of PDZRN4_1, Q6ZMN7 (Q6ZMN7 213-318): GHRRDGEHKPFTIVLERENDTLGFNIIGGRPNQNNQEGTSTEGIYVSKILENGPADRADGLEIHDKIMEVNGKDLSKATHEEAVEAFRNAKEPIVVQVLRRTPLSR

DVL3, Q92997 = biological target: T7, DVL3, Q92997
T7 sequence (Q92997 244-331, limits assumed, looked up): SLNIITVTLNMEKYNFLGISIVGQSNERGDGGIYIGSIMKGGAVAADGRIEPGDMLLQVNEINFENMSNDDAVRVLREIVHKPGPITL

TJP3_3, O95049 = biological target: T8, TJP3_3, O95049
T8 sequence (O95049 375-456, limits assumed, looked up): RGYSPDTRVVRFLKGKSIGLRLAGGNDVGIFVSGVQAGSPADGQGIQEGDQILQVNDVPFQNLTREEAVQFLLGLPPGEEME

HTRA2, O43464 = biological target: HTRA2, O43464
Sequence of HTRA2, O43464 (O43464 355-458): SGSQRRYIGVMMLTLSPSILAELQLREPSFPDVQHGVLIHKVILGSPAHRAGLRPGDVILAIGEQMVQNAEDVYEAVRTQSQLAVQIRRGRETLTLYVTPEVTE

DLG4_3, P78352 = biological target: DLG4_3, P78352
Sequence of DLG4_3, P78352 (P78352 306-403): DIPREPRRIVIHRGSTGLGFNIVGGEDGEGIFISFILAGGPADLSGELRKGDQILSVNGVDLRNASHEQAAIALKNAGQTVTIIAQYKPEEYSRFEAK

SNTB1, Q13884 = biological target: T9, SNTB1, Q13884
T9 sequence (Q13884 107-205, limits assumed, looked up): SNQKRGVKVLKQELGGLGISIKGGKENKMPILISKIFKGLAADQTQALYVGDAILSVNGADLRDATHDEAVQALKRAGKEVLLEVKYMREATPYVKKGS

GRIP2_4, Q9C0E4 = biological target: GRIP2_4, Q9C0E4
Sequence of GRIP2_4, Q9C0E4 (Q9C0E4 446-548): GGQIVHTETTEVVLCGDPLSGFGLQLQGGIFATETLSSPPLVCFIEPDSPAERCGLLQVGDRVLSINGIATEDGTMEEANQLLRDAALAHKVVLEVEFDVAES

GRIP2_6, Q9C0E4 = biological target: GRIP2_6, Q9C0E4
Sequence of GRIP2_6, Q9C0E4 (Q9C0E4 648-740): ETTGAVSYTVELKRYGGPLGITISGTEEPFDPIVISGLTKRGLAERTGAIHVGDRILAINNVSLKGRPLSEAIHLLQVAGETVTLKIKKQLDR

GRIP1_5, Q9Y3R0 = biological target: T10, GRIP1_5, Q9Y3R0
T10 sequence (Q9Y3R0 568-668, limits assumed, looked up): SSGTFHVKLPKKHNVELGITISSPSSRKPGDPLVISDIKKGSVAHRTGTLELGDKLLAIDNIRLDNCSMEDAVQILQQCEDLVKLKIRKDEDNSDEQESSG

[1] = plain residues with an end cap or a label only (N-terminal biotin on a linker: ttds)
[2] = plain residues with an end cap or a label only (N-terminal biotin on a linker: ahx)
[3] = plain residues with an end cap or a label only (N-terminal biotin on a linker: ado-ado)

B1: CBP, Q92793 (peptide)
chain: TGDTLEKFVEGL
- pKd (MPP7, Q5T2T1; [1]): below the threshold
- pKd (Inadl_6, Q8NI35; [1]): below the threshold
- pKd (APBA3_1, O96018; [1]): below the threshold
- pKd (TJP1_3, Q07157; [1]): below the threshold
- pKd (GOPC, Q9HD26; [1]): below the threshold
- pKd (LNX2_3, Q8N448; [1]): below the threshold
- pKd (DLG2_2, Q15700; [1]): below the threshold
- pKd (LNX1_2, Q8TBB1; [1]): below the threshold
- pKd (HTRA3, P83110; [1]): below the threshold
- pKd (LNX1_1, Q8TBB1; [1]): below the threshold
- pKd (CARD11, Q9BXL7; [1]): below the threshold
- pKd (LAP2, Q96RT1; [1]): below the threshold
- pKd (NHERF4_1, Q86UT5-2; [1]): 3.71
- pKd (HTRA1, Q92743; [1]): below the threshold
- pKd (LRRC7, Q96NW7; [1]): below the threshold
- pKd (MAGI3_2, Q5TCQ9; [1]): below the threshold
- pKd (GORASP2, Q9H8Y8; [1]): below the threshold
- pKd (FRMPD3, Q5JV73; [1]): below the threshold
- pKd (PDZRN4_1, Q6ZMN7; [1]): below the threshold
- pKd (DVL3, Q92997; [1]): below the threshold
- pKd (TJP3_3, O95049; [1]): below the threshold
- pKd (HTRA2, O43464; [1]): below the threshold
- pKd (DLG4_3, P78352; [1]): below the threshold
- pKd (SNTB1, Q13884; [1]): below the threshold
- pKd (GRIP2_4, Q9C0E4; [1]): below the threshold
- pKd (GRIP2_6, Q9C0E4; [1]): below the threshold
- pKd (GRIP1_5, Q9Y3R0; [1]): below the threshold

B2: APC, P25054 (peptide)
chain: HSGSYLVTSV
- pKd (MPP7, Q5T2T1; [2]): below the threshold
- pKd (Inadl_6, Q8NI35; [2]): 3.81
- pKd (APBA3_1, O96018; [2]): below the threshold
- pKd (TJP1_3, Q07157; [2]): below the threshold
- pKd (GOPC, Q9HD26; [2]): 4.3
- pKd (LNX2_3, Q8N448; [2]): below the threshold
- pKd (DLG2_2, Q15700; [2]): 5.11
- pKd (LNX1_2, Q8TBB1; [2]): 3.79
- pKd (HTRA3, P83110; [2]): below the threshold
- pKd (LNX1_1, Q8TBB1; [2]): 4.45
- pKd (CARD11, Q9BXL7; [2]): below the threshold
- pKd (LAP2, Q96RT1; [2]): 4.87
- pKd (NHERF4_1, Q86UT5-2; [2]): below the threshold
- pKd (HTRA1, Q92743; [2]): 4.2
- pKd (LRRC7, Q96NW7; [2]): 4.14
- pKd (MAGI3_2, Q5TCQ9; [2]): 4.53
- pKd (GORASP2, Q9H8Y8; [2]): 4.41
- pKd (FRMPD3, Q5JV73; [2]): below the threshold
- pKd (PDZRN4_1, Q6ZMN7; [2]): below the threshold
- pKd (DVL3, Q92997; [2]): below the threshold
- pKd (TJP3_3, O95049; [2]): below the threshold
- pKd (HTRA2, O43464; [2]): below the threshold
- pKd (DLG4_3, P78352; [2]): 4.5
- pKd (SNTB1, Q13884; [2]): 4.05
- pKd (GRIP2_4, Q9C0E4; [2]): below the threshold
- pKd (GRIP2_6, Q9C0E4; [2]): below the threshold
- pKd (GRIP1_5, Q9Y3R0; [2]): below the threshold

B3: NCBP2L, A6PVI3 (peptide)
chain: RGGFGRQTQI
- pKd (MPP7, Q5T2T1; [3]): below the threshold
- pKd (Inadl_6, Q8NI35; [3]): below the threshold
- pKd (APBA3_1, O96018; [3]): below the threshold
- pKd (TJP1_3, Q07157; [3]): below the threshold
- pKd (GOPC, Q9HD26; [3]): 4.05
- pKd (LNX2_3, Q8N448; [3]): below the threshold
- pKd (DLG2_2, Q15700; [3]): 4.65
- pKd (LNX1_2, Q8TBB1; [3]): below the threshold
- pKd (HTRA3, P83110; [3]): below the threshold
- pKd (LNX1_1, Q8TBB1; [3]): below the threshold
- pKd (CARD11, Q9BXL7; [3]): below the threshold
- pKd (LAP2, Q96RT1; [3]): below the threshold
- pKd (NHERF4_1, Q86UT5-2; [3]): 3.8
- pKd (HTRA1, Q92743; [3]): below the threshold
- pKd (LRRC7, Q96NW7; [3]): below the threshold
- pKd (MAGI3_2, Q5TCQ9; [3]): 4.79
- pKd (GORASP2, Q9H8Y8; [3]): 4.19
- pKd (FRMPD3, Q5JV73; [3]): below the threshold
- pKd (PDZRN4_1, Q6ZMN7; [3]): below the threshold
- pKd (DVL3, Q92997; [3]): below the threshold
- pKd (TJP3_3, O95049; [3]): below the threshold
- pKd (HTRA2, O43464; [3]): below the threshold
- pKd (DLG4_3, P78352; [3]): 4.17
- pKd (SNTB1, Q13884; [3]): 4.51
- pKd (GRIP2_4, Q9C0E4; [3]): below the threshold
- pKd (GRIP2_6, Q9C0E4; [3]): below the threshold
- pKd (GRIP1_5, Q9Y3R0; [3]): below the threshold

B4: NRXN3_rs746444206, Q9Y4C0 (peptide)
chain: QKNKDKEYYV
- pKd (MPP7, Q5T2T1; [3]): 4.79
- pKd (Inadl_6, Q8NI35; [3]): below the threshold
- pKd (APBA3_1, O96018; [3]): below the threshold
- pKd (TJP1_3, Q07157; [3]): below the threshold
- pKd (GOPC, Q9HD26; [3]): below the threshold
- pKd (LNX2_3, Q8N448; [3]): below the threshold
- pKd (DLG2_2, Q15700; [3]): below the threshold
- pKd (LNX1_2, Q8TBB1; [3]): 4
- pKd (HTRA3, P83110; [3]): 4.64
- pKd (LNX1_1, Q8TBB1; [3]): below the threshold
- pKd (CARD11, Q9BXL7; [3]): below the threshold
- pKd (LAP2, Q96RT1; [3]): below the threshold
- pKd (NHERF4_1, Q86UT5-2; [3]): below the threshold
- pKd (HTRA1, Q92743; [3]): 5.32
- pKd (LRRC7, Q96NW7; [3]): below the threshold
- pKd (MAGI3_2, Q5TCQ9; [3]): 4.63
- pKd (GORASP2, Q9H8Y8; [3]): 4.47
- pKd (FRMPD3, Q5JV73; [3]): 3.9
- pKd (PDZRN4_1, Q6ZMN7; [3]): below the threshold
- pKd (DVL3, Q92997; [3]): 3.85
- pKd (TJP3_3, O95049; [3]): 3.86
- pKd (HTRA2, O43464; [3]): 3.51
- pKd (DLG4_3, P78352; [3]): below the threshold
- pKd (SNTB1, Q13884; [3]): below the threshold
- pKd (GRIP2_4, Q9C0E4; [3]): below the threshold
- pKd (GRIP2_6, Q9C0E4; [3]): 4.02
- pKd (GRIP1_5, Q9Y3R0; [3]): below the threshold
